Results published in patent US12365732 (23ANDME, dated 2025).
Where a chain is given by its changes, count along the chain named. Names may count otherwise.

B1: mAb1.v7.NGS9 Fab (Fab, V domains shown)
VH: EVQLVQSGAEVKKPGASVKVSCKASGFTFTNNFMHWVRQAPGQGLEWIGMIHANSGITNINEKFKNRVTMTTDTSTSTAYMELRSLRSEDTAVYYCRSDGVYEGYFDYWGQGTLVTVSS
VL: DIQLTQSPSSLSASVGDRVTITCKASQNVGTAIVWYQQKPGKAPKVLIYSASTRYTGVPSRFSGSGSGTDFTLTISSLQPEDFATYYCQQYSSSPLTFGQGTKVEIK
notes: also called W33F/P52aA/T97V
B2: mAb1.v7.NGS8 IgG (antibody, V domains shown)
VH: B1 VH with V101I
VL: DIQLTQSPSSLSASVGDRVTITCKASQNVGTAIVWYQQKPGKAPKVLIYSASTRYTGVPSRFSGSGSGTDFTLTISSLQPEDFATYYCQQYSSSPLTFGQGTKVEIKG
notes: human IgG1 N297G
B3: mAb1.v7.NGS11 Fab (Fab, V domains shown)
VH: B1 VH with M50F
VL: B1 VL
notes: also called W33F/M50F/P52aA/T97V
B4: mAb1.v7.NGS10 Fab (Fab, V domains shown)
VH: B1 VH with M50F, V101I
VL: B1 VL
notes: Fab; also called W33F/M50F/P52aA/T97I
B5: hu-CD226 His tag (receptor, human, UniProt Q15762 19-247, looked up)
chain: EEVLWHTSVPFAENMSLECVYPSMGILTQVEWFKIGTQQDSIAIFSPTHGMVIRKPYAERVYFLNSTMASNNMTLFFRNASEDDVGYYSCSLYTYPQGTWQKVIQVVQSDSFEAAVPSNSHIVSEPGKNVTLTCQPQMTWPVQAVRWEKIQPRQIDLLTYCNLVHGRNFTSKFPRQIVSNCSHGRWSVIVIPDVTVSDSGLYRCYLQASAGENETFVMRLTVAEGKTDN
modifications: biotinylated

Tests used:
[1] = molecular target: T1, hu-CD96 (soluble, isoform 2 extracellular domain) (human, UniProt P40200 22-516, biotinylated in Octet and blocking ELISA); experiment: CD155 blocking ELISA
T1 construct: the assays name only hu-CD96; also called hCD96; biotinylated hu-CD96
T1 sequence: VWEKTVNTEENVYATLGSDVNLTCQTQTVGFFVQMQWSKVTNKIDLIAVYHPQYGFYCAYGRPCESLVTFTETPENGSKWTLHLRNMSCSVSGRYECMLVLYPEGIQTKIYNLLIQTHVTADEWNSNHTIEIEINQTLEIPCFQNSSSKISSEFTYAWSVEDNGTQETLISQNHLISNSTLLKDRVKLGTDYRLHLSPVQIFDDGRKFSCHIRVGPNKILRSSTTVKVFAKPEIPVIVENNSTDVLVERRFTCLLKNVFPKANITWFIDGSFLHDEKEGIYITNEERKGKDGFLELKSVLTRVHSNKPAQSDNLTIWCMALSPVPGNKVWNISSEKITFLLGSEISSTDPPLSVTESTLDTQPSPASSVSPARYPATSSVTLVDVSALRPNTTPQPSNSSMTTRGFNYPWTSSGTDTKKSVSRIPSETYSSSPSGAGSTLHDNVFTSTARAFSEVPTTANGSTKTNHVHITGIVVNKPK

[2] = molecular target: T2, cy-CD96 (soluble, extracellular domain) (cynomolgus monkey, UniProt P40200 22-516 (human entry), biotinylated in Octet and blocking ELISA); experiment: CD155 blocking ELISA
T2 construct: the assays name only cy-CD96; also called biotinylated cy-CD96
T2 chain: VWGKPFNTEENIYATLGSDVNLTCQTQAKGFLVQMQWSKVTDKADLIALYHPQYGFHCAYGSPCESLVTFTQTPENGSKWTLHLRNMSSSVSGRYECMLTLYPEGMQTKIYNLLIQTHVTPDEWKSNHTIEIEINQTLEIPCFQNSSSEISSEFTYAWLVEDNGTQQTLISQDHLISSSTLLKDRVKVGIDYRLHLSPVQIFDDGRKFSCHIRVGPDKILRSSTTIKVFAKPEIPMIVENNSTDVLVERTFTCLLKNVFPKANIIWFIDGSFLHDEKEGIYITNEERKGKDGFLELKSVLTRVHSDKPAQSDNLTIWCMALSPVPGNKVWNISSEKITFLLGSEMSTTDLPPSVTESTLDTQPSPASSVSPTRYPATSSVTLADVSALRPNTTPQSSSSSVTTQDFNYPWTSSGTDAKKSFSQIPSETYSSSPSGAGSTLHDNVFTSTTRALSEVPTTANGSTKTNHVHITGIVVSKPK

hu-CD96 Fc [3] = molecular target: T3, hu-CD96 Fc (human, biotinylated in Table 16); experiment: SPR (Biacore), Fab
T3 construct: also called biotinylated hu-CD96-Fc

cy-CD96 Fc = molecular target: T4, cy-CD96 Fc (cynomolgus monkey, biotinylated in Table 16); experiment: SPR (Biacore), Fab
T4 construct: also called biotinylated cy-CD96-Fc

[4] = molecular target: T1, hu-CD96 (soluble, isoform 2 …); experiment: BLI (Octet), biotin-CD96 on SA, Fab analyte
[5] = molecular target: T2, cy-CD96 (soluble, extracellular domain); experiment: BLI (Octet), biotin-CD96 on SA, Fab analyte
[6] = molecular target: T5, hu-CD96 isoform 2 on CHO cells (human, UniProt P40200 22-585); experiment: FACS, CD155-Fc-FLAG 10 nM, Ab 0.16 nM
T5 construct: also called CHO-CD96 (isoform 2); CD96-CHOs
T5 sequence: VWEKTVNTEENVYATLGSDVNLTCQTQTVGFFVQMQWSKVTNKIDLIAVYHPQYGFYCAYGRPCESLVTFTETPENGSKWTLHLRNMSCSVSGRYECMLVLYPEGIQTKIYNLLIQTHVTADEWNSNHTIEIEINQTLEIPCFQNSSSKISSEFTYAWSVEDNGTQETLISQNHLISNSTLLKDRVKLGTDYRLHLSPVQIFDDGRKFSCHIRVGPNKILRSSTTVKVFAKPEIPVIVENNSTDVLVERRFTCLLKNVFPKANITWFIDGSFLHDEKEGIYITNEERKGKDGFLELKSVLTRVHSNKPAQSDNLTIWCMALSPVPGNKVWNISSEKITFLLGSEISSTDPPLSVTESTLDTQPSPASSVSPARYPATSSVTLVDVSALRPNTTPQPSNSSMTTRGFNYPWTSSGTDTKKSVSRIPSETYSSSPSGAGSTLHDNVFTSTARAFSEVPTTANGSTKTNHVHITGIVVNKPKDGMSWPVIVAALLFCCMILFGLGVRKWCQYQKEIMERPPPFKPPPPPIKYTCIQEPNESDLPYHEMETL
Method: (§1) CHO cells stably expressing isoform 2 of hu-CD96 (Origene, catalog #RC221005) were incubated with anti-CD96 antibodies for 20 minutes at 4° C. The cells were washed, and then incubated with 10 nM human CD155-Fc-FLAG for 30 minutes at 4° C. Cells were washed, and then human CD155-Fc-FLAG binding was detected by incubation with anti-FLAG-APC (Columbia Biosciences, catalog #D3-1718-1MG) for 20 minutes at 4° C. Cell binding was analyzed by flow cytometry with a CytoFLEX (Beckman Coulter). CD155 binding is represented as median fluorescence intensity (MedFI).
(§2) As shown in Table 20 (below), the anti-CD96 antibodies, mAb1.v7.NGS8, mAb1.v7.NGS9, mAb1.v7.NGS10, mAb1.v7.NGS11, and h10G1 inhibited soluble hu-CD155 binding to CD96-expressing CHO cells dose-dependently and potently. The antibody NK92.39 (Fuchs et al., 2004; Biolegend catalog #338405) inhibited receptor binding similarly.

[7] = molecular target: T5, hu-CD96 isoform 2 on CHO cells; experiment: FACS, CD155-Fc-FLAG 10 nM, Ab 0.032 nM
Method: as §1, §2

[8] = molecular target: T5, hu-CD96 isoform 2 on CHO cells; experiment: FACS, CD155-Fc-FLAG 10 nM, Ab 100 nM
Method: as §1, §2

[9] = molecular target: T5, hu-CD96 isoform 2 on CHO cells; experiment: FACS, CD155-Fc-FLAG 10 nM, Ab 4 nM
Method: as §1, §2

[10] = molecular target: T5, hu-CD96 isoform 2 on CHO cells; experiment: FACS, blocks 10 nM CD155-Fc-FLAG binding to CD96-CHO
Method: as §1, §2

[11] = molecular target: T5, hu-CD96 isoform 2 on CHO cells; experiment: FACS, CD155-Fc-FLAG 10 nM, Ab 0.8 nM
Method: as §1, §2

[12] = molecular target: T5, hu-CD96 isoform 2 on CHO cells; experiment: FACS, CD155-Fc-FLAG 10 nM, Ab 0.0064 nM
Method: as §1, §2

hu-CD96 Fc [13] = molecular target: T3, hu-CD96 Fc; experiment: SPR 37C, biotin-CD96-Fc captured, IgG analyte
Method: Briefly, a 1:4 dilution of Biotin CAPture Reagent (GE Healthcare) into HBS-EP buffer (0.01 M HEPES pH 7.4, 0.15 M NaCl, 3 mM EDTA, 0.005% Surfactant P20) was applied to the chip at 2 µL/min flow rate. For the kinetics measurements, 20 nM biotinylated hu-CD96-Fc and cy-CD96-Fc was captured at 10 µL/min to achieve ~50 response units in the second flow cell (FC2). FC1 was kept as a reference. Next, 4-fold serial dilutions of IgG in HBS-P buffer (0.01 M HEPES pH 7.4, 0.15 M NaCl, 0.005% surfactant P20) from low (3.125 nM) to high (200 nM) concentration were injected (flow rate: 10 µL/min) at 37° C. The sensorgram was recorded and subject to reference and buffer subtraction before evaluating by BIACORE® 8K Evaluation Software (version 1.1.1.7442). Association rates ($kon$) and dissociation rates ($koff$) were calculated using a simple one-to-one Langmuir binding model. The equilibrium dissociation constant (K_D) value was calculated as the ratio of $koff/kon$.

[14] = molecular target: T5, hu-CD96 isoform 2 on CHO cells; experiment: FACS, CD155-Fc-FLAG 10 nM, Ab 20 nM
Method: as §1, §2

hCD155 (Table 28) = molecular target: T6, hCD155 (Table 28) (human, UniProt P15151 21-343, limits assumed); experiment: SPR 25C, biotin-CD226-His captured, steady state fitting
T6 sequence (looked up): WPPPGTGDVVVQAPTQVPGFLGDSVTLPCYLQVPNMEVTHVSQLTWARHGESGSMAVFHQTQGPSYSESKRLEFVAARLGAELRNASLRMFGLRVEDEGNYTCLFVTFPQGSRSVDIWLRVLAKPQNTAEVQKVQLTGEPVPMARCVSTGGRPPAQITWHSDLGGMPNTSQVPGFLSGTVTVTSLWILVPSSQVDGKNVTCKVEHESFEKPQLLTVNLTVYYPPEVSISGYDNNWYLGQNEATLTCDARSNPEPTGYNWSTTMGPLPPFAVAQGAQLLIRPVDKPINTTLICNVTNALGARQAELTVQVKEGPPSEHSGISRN
Method: To determine the binding affinity to hu-CD226 and cy-CD226 of mAb1.v7.NGS8, h10G1, hCD155 and anti-hCD226 antibody DX11 (Abcam, cat #Ab33397), SPR measurement with a BIACORE™ 8K instrument was performed. Briefly, a 1:4 dilution of Biotin CAPture Reagent (GE Healthcare) into HBS-EP buffer (0.01 M HEPES pH 7.4, 0.15 M NaCl, 3 mM EDTA, 0.005% Surfactant P20) was applied to the chip at 2 µL/min flow rate. For the kinetics measurements, 5 µg/ml of biotinylated hu-CD226 His tag (Sino biological, cat #10565-H08H) and cy-CD226 His tag (Arco biosystems, cat #DN1-052H9) was captured at 10 µL/min to achieve ~50 response units in the second flow cell (FC2). FC1 was kept as a reference. Next, 3-fold serial dilutions of IgG in HBS-P buffer (0.01 M HEPES pH 7.4, 0.15 M NaCl, 0.005% surfactant P20) from low (1.3 nM) to high (1000 nM) concentration were injected (flow rate: 30 µL/min) at 25° C. The sensorgram was recorded and subject to reference and buffer subtraction before evaluating by BIACORE® 8K Evaluation Software (version 1.1.1.7442). Association rates ($kon$) and dissociation rates ($koff$) were calculated using a simple one-to-one Langmuir binding model. The equilibrium dissociation constant (K_D) value was calculated as the ratio of $koff/kon$. […]

Binder | IC50 [1] | IC50 [2] | Kd (hu-CD96 Fc [3]) | koff (hu-CD96 Fc [3]) | kon (hu-CD96 Fc [3]) | Kd (cy-CD96 Fc) | koff (cy-CD96 Fc) | kon (cy-CD96 Fc) | other results
B1 | 0.78 nM | 0.73 nM | 5.85 nM | 8.32e-05 s⁻¹ | 14200 M⁻¹ s⁻¹ | 16.7 nM | 0.000414 s⁻¹ | 24800 M⁻¹ s⁻¹ | Kd [4]: 0.1 nM; Kd [5]: 82 nM
B2 | – | – | – | – | – | – | – | – | CD155-Fc binding (MedFI) [6]: 52900 MedFI; CD155-Fc binding (MedFI) [7]: 47800 MedFI; CD155-Fc binding (MedFI) [8]: 4180 MedFI; CD155-Fc binding (MedFI) [9]: 4960 MedFI; IC50 [10]: 0.76 nM; CD155-Fc binding (MedFI) [11]: 23600 MedFI; CD155-Fc binding (MedFI) [12]: 49200 MedFI; Kd (hu-CD96 Fc [13]): 0.15 nM; koff (hu-CD96 Fc [13]): 1.99e-05 s⁻¹; kon (hu-CD96 Fc [13]): 129000 M⁻¹ s⁻¹; CD155-Fc binding (MedFI) [14]: 4290 MedFI
B3 | 0.59 nM | 0.95 nM | 2.62 nM | 2.75e-05 s⁻¹ | 10500 M⁻¹ s⁻¹ | 19.1 nM | 0.000215 s⁻¹ | 11200 M⁻¹ s⁻¹ | –
B4 | 0.54 nM | 0.84 nM | 2.1 nM | 2.6e-05 s⁻¹ | 12100 M⁻¹ s⁻¹ | 30 nM | 0.000343 s⁻¹ | 11400 M⁻¹ s⁻¹ | –
B5 | – | – | – | – | – | – | – | – | Kd (hCD155 (Table 28)): 161 nM
